Columns and labels:
[1] = target: human glucagon receptor (Glucagon-R) (human, UniProt P47871 26-477); experiment: cell-based or functional assay
[2] = target: human glucagon-like peptide 1 receptor (GLP-1R) (human, UniProt P43220 24-463); experiment: cell-based or functional assay

human glucagon receptor (Glucagon-R), sequence (P47871 26-477): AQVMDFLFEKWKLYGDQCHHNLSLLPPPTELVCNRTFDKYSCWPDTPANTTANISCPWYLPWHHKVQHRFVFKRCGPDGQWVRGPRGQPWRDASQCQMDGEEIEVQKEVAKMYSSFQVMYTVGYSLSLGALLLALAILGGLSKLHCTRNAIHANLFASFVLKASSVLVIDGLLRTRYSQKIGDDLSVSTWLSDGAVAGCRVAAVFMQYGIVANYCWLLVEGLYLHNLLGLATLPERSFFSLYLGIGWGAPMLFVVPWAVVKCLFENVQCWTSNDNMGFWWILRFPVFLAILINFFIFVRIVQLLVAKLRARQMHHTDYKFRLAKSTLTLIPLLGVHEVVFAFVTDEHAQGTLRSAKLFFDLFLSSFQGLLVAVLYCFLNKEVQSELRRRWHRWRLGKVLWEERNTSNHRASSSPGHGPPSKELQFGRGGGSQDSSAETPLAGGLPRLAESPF

Binder	EC50 values for cAMP generation in HEK293 cells expressing Glucagon receptor [1] [nM]	EC50 values for cAMP generation in HEK293 cells expressing GLP-1 receptor [2] [nM]
HSHGTFTSDYSKYLDEKRAKDFIEWLLSA (HELM PEPTIDE1{H.S.H.G.T.F.T.S.D.Y.S.K.Y.L.D.E.K.R.A.K.D.F.I.E.W.L.L.S.A.[am]}|PEPTIDE2{[CCCCCCCCCCCCCCCC(=O)[*:2]].[gGlu]}$PEPTIDE1,PEPTIDE2,17:R3-2:R2$$$V2.0; SMILES CCCCCCCCCCCCCCCC(=O)N[C@@H](CCC(=O)NCCCC[C@H](NC(=O)[C@H](CCC(=O)O)NC(=O)[C@H](CC(=O)O)NC(=O)[C@H](CC(C)C)NC(=O)[C@H](Cc1ccc(O)cc1)NC(=O)[C@H](CCCCN)NC(=O)[C@H](CO)NC(=O)[C@H](Cc1ccc(O)cc1)NC(=O)[C@H](CC(=O)O)NC(=O)[C@H](CO)NC(=O)[C@@H](NC(=O)[C@H](Cc1ccccc1)NC(=O)[C@@H](NC(=O)CNC(=O)[C@H](Cc1c[nH]cn1)NC(=O)[C@H](CO)NC(=O)[C@@H](N)Cc1c[nH]cn1)[C@@H](C)O)[C@@H](C)O)C(=O)N[C@@H](CCCNC(=N)N)C(=O)N[C@@H](C)C(=O)N[C@@H](CCCCN)C(=O)N[C@@H](CC(=O)O)C(=O)N[C@@H](Cc1ccccc1)C(=O)N[C@H](C(=O)N[C@@H](CCC(=O)O)C(=O)N[C@@H](Cc1c[nH]c2ccccc12)C(=O)N[C@@H](CC(C)C)C(=O)N[C@@H](CC(C)C)C(=O)N[C@@H](CO)C(=O)N[C@@H](C)C(N)=O)[C@@H](C)CC)C(=O)O) [H-HSHGTFTSDYSKYLDE-K(Hexadecanoyl-isoGlu)-RAKDFIEWLLSA-NH2 [Compound 18]]	0.09	0.09
HXPGTFTSDYSRYLDEKRARDFIEWLLSA (HELM PEPTIDE1{H.[Aib].P.G.T.F.T.S.D.Y.S.R.Y.L.D.E.K.R.A.R.D.F.I.E.W.L.L.S.A.[am]}|PEPTIDE2{[CCCCCCCCCCCCCCCC(=O)[*:2]].[gGlu]}$PEPTIDE1,PEPTIDE2,17:R3-2:R2$$$V2.0; SMILES CCCCCCCCCCCCCCCC(=O)N[C@@H](CCC(=O)NCCCC[C@H](NC(=O)[C@H](CCC(=O)O)NC(=O)[C@H](CC(=O)O)NC(=O)[C@H](CC(C)C)NC(=O)[C@H](Cc1ccc(O)cc1)NC(=O)[C@H](CCCNC(=N)N)NC(=O)[C@H](CO)NC(=O)[C@H](Cc1ccc(O)cc1)NC(=O)[C@H](CC(=O)O)NC(=O)[C@H](CO)NC(=O)[C@@H](NC(=O)[C@H](Cc1ccccc1)NC(=O)[C@@H](NC(=O)CNC(=O)[C@@H]1CCCN1C(=O)C(C)(C)NC(=O)[C@@H](N)Cc1c[nH]cn1)[C@@H](C)O)[C@@H](C)O)C(=O)N[C@@H](CCCNC(=N)N)C(=O)N[C@@H](C)C(=O)N[C@@H](CCCNC(=N)N)C(=O)N[C@@H](CC(=O)O)C(=O)N[C@@H](Cc1ccccc1)C(=O)N[C@H](C(=O)N[C@@H](CCC(=O)O)C(=O)N[C@@H](Cc1c[nH]c2ccccc12)C(=O)N[C@@H](CC(C)C)C(=O)N[C@@H](CC(C)C)C(=O)N[C@@H](CO)C(=O)N[C@@H](C)C(N)=O)[C@@H](C)CC)C(=O)O) [H-H-Aib-PGTFTSDYSRYLDE-K(Hexadecanoyl-isoGlu)-RARDFIEWLLSA-NH2 [Compound 15]]	0.42	0.06
HXQGTFTSDYSKYLDERRAKDFIEWLLSA (HELM PEPTIDE1{H.[Aib].Q.G.T.F.T.S.D.Y.S.K.Y.L.D.E.R.R.A.K.D.F.I.E.W.L.L.S.A.[am]}|PEPTIDE2{[CCCCCCCCCCCCCCCC(=O)[*:2]].[gGlu]}$PEPTIDE1,PEPTIDE2,20:R3-2:R2$$$V2.0; SMILES CCCCCCCCCCCCCCCC(=O)N[C@@H](CCC(=O)NCCCC[C@H](NC(=O)[C@H](C)NC(=O)[C@H](CCCNC(=N)N)NC(=O)[C@H](CCCNC(=N)N)NC(=O)[C@H](CCC(=O)O)NC(=O)[C@H](CC(=O)O)NC(=O)[C@H](CC(C)C)NC(=O)[C@H](Cc1ccc(O)cc1)NC(=O)[C@H](CCCCN)NC(=O)[C@H](CO)NC(=O)[C@H](Cc1ccc(O)cc1)NC(=O)[C@H](CC(=O)O)NC(=O)[C@H](CO)NC(=O)[C@@H](NC(=O)[C@H](Cc1ccccc1)NC(=O)[C@@H](NC(=O)CNC(=O)[C@H](CCC(N)=O)NC(=O)C(C)(C)NC(=O)[C@@H](N)Cc1c[nH]cn1)[C@@H](C)O)[C@@H](C)O)C(=O)N[C@@H](CC(=O)O)C(=O)N[C@@H](Cc1ccccc1)C(=O)N[C@H](C(=O)N[C@@H](CCC(=O)O)C(=O)N[C@@H](Cc1c[nH]c2ccccc12)C(=O)N[C@@H](CC(C)C)C(=O)N[C@@H](CC(C)C)C(=O)N[C@@H](CO)C(=O)N[C@@H](C)C(N)=O)[C@@H](C)CC)C(=O)O) [H-H-Aib-QGTFTSDYSKYLDERRA-K(Hexadecanoyl-isoGlu)-DFIEWLLSA-NH2 [Compound 2]]	0.35	0.36
HSPGTFTSDYSKYLDEKRAKDFIEWLLSA (HELM PEPTIDE1{H.[dS].P.G.T.F.T.S.D.Y.S.K.Y.L.D.E.K.R.A.K.D.F.I.E.W.L.L.S.A.[am]}|PEPTIDE2{[CCCCCCCCCCCCCCCC(=O)[*:2]].[gGlu]}$PEPTIDE1,PEPTIDE2,17:R3-2:R2$$$V2.0; SMILES CCCCCCCCCCCCCCCC(=O)N[C@@H](CCC(=O)NCCCC[C@H](NC(=O)[C@H](CCC(=O)O)NC(=O)[C@H](CC(=O)O)NC(=O)[C@H](CC(C)C)NC(=O)[C@H](Cc1ccc(O)cc1)NC(=O)[C@H](CCCCN)NC(=O)[C@H](CO)NC(=O)[C@H](Cc1ccc(O)cc1)NC(=O)[C@H](CC(=O)O)NC(=O)[C@H](CO)NC(=O)[C@@H](NC(=O)[C@H](Cc1ccccc1)NC(=O)[C@@H](NC(=O)CNC(=O)[C@@H]1CCCN1C(=O)[C@@H](CO)NC(=O)[C@@H](N)Cc1c[nH]cn1)[C@@H](C)O)[C@@H](C)O)C(=O)N[C@@H](CCCNC(=N)N)C(=O)N[C@@H](C)C(=O)N[C@@H](CCCCN)C(=O)N[C@@H](CC(=O)O)C(=O)N[C@@H](Cc1ccccc1)C(=O)N[C@H](C(=O)N[C@@H](CCC(=O)O)C(=O)N[C@@H](Cc1c[nH]c2ccccc12)C(=O)N[C@@H](CC(C)C)C(=O)N[C@@H](CC(C)C)C(=O)N[C@@H](CO)C(=O)N[C@@H](C)C(N)=O)[C@@H](C)CC)C(=O)O) [H-H-DSer-PGTFTSDYSKYLDE-K(Hexadecanoyl-isoGlu)-RAKDFIEWLLSA-NH2 [Compound 21]]	0.21	0.08
HXQGTFTSDYSRYLDEKRAKDFIEWLLSA (HELM PEPTIDE1{H.[Aib].Q.G.T.F.T.S.D.Y.S.R.Y.L.D.E.K.R.A.K.D.F.I.E.W.L.L.S.A.[am]}|PEPTIDE2{[CCCCCCCCCCCCCCCC(=O)[*:2]].[gGlu]}$PEPTIDE1,PEPTIDE2,17:R3-2:R2$$$V2.0; SMILES CCCCCCCCCCCCCCCC(=O)N[C@@H](CCC(=O)NCCCC[C@H](NC(=O)[C@H](CCC(=O)O)NC(=O)[C@H](CC(=O)O)NC(=O)[C@H](CC(C)C)NC(=O)[C@H](Cc1ccc(O)cc1)NC(=O)[C@H](CCCNC(=N)N)NC(=O)[C@H](CO)NC(=O)[C@H](Cc1ccc(O)cc1)NC(=O)[C@H](CC(=O)O)NC(=O)[C@H](CO)NC(=O)[C@@H](NC(=O)[C@H](Cc1ccccc1)NC(=O)[C@@H](NC(=O)CNC(=O)[C@H](CCC(N)=O)NC(=O)C(C)(C)NC(=O)[C@@H](N)Cc1c[nH]cn1)[C@@H](C)O)[C@@H](C)O)C(=O)N[C@@H](CCCNC(=N)N)C(=O)N[C@@H](C)C(=O)N[C@@H](CCCCN)C(=O)N[C@@H](CC(=O)O)C(=O)N[C@@H](Cc1ccccc1)C(=O)N[C@H](C(=O)N[C@@H](CCC(=O)O)C(=O)N[C@@H](Cc1c[nH]c2ccccc12)C(=O)N[C@@H](CC(C)C)C(=O)N[C@@H](CC(C)C)C(=O)N[C@@H](CO)C(=O)N[C@@H](C)C(N)=O)[C@@H](C)CC)C(=O)O) [H-H-Aib-QGTFTSDYSRYLDE-K(Hexadecanoyl-isoGlu)-RAKDFIEWLLSA-NH2 [Compound 16]]	0.11	0.06
HSQGTFTSDYSKYLDERRAKDFIKWLLSA (HELM PEPTIDE1{H.S.Q.G.T.F.T.S.D.Y.S.K.Y.L.D.E.R.R.A.K.D.F.I.K.W.L.L.S.A.[am]}|PEPTIDE2{[CCCCCCCCCCCCCCCC(=O)[*:2]].[gGlu]}$PEPTIDE1,PEPTIDE2,24:R3-2:R2$$$V2.0; SMILES CCCCCCCCCCCCCCCC(=O)N[C@@H](CCC(=O)NCCCC[C@H](NC(=O)[C@@H](NC(=O)[C@H](Cc1ccccc1)NC(=O)[C@H](CC(=O)O)NC(=O)[C@H](CCCCN)NC(=O)[C@H](C)NC(=O)[C@H](CCCNC(=N)N)NC(=O)[C@H](CCCNC(=N)N)NC(=O)[C@H](CCC(=O)O)NC(=O)[C@H](CC(=O)O)NC(=O)[C@H](CC(C)C)NC(=O)[C@H](Cc1ccc(O)cc1)NC(=O)[C@H](CCCCN)NC(=O)[C@H](CO)NC(=O)[C@H](Cc1ccc(O)cc1)NC(=O)[C@H](CC(=O)O)NC(=O)[C@H](CO)NC(=O)[C@@H](NC(=O)[C@H](Cc1ccccc1)NC(=O)[C@@H](NC(=O)CNC(=O)[C@H](CCC(N)=O)NC(=O)[C@H](CO)NC(=O)[C@@H](N)Cc1c[nH]cn1)[C@@H](C)O)[C@@H](C)O)[C@@H](C)CC)C(=O)N[C@@H](Cc1c[nH]c2ccccc12)C(=O)N[C@@H](CC(C)C)C(=O)N[C@@H](CC(C)C)C(=O)N[C@@H](CO)C(=O)N[C@@H](C)C(N)=O)C(=O)O) [H-HSQGTFTSDYSKYLDERRAKDFI-K(Hexadecanoyl-isoGlu)-WLLSA-NH2 [Compound 4]]	0.79	1.31
